# Results taken from patent US20120107330A1 (published 2012).
# B1: DOM1h-574-15 (other)
# VH: EVQLLESGGGLVQPGGSLRLSCAASGFTFVKYSMGWVRQAPGKGLEWVSQISNTGDHTYYADSVKGRFTISRDNSKNTLYLQMNSLRAEDTAVYYCAIYTGRWEPFDYWGQGTLVTVSS
# notes: VH dAb
# B2: DOM1h-574 (other)
# VH: EVQLLESGGGLVQPGGSLRLSCAASGFTFVKYSMGWVRQAPGKGLEWVSQISNTGGHTYYADSVKGRFTISRDNSKNTLYLQMNSLRAEDTAVYYCAKYTGHWEPFDYWGQGTLVTVSS
# notes: VH dAb; also called parental dAb
# B3: DOM1h-574-7 (other)
# VH: EVQLLESGGGLVQPGGSLRLSCAASGFTFVKYSMGWVRQAPGKGLEWVSQISNTGGHTYYADSVKGRFTISRDNSKNTLYLQMNSLRAEDTAVYYCAIYTGRWEPFDYWGQGTLVTVSS
# notes: VH dAb
# B4: DOM1h-574-8 (other)
# VH: EVQLLESGGGLVQPGGSLRLSCAASGFTFVKYSMGWVRQAPGKGPEWVSQISNTGGHTYYADSVKGRFTISRDNSKNTLYLQMNSLRAEDTAVYYCAIYTGRWEPFDYWGQGTLVTVSS
# notes: VH dAb
# B5: DOM1h-574-10 (other)
# VH: EVQLLESGGGLVQPGGSLRLSCAASGFTFGKYSMGWVRQAPGKDLEWVSQISNTGGHTYYADSVKGRFTISRDNSKNTLYLQMNSLRAEDTAVYYCAIYTGRWEPFDYWGQGTLVTVSS
# notes: VH dAb
# B6: DOM1h-574-11 (other)
# VH: EVQLLESGGGLVQPGGSLRLSCAASGFTFVKYSMGWVRQAPGKGLEWVSQISNTGGHTYYADSVKGRFTISRDNSKNTLYLQMNSLRAEDTAVYYCAKYTGRWEPFDHWGQGTLVTVSS
# notes: VH dAb
# B7: DOM1h-574-19 (other)
# VH: EVQLLESGGGLVQPGGSLRLSCAASGFTFGKYSMGWVRQAPGKDLEWVSQISNTGDHTYYADSVKGRFTISRDNSKNTLYLQMNSLRAEDTAVYYCAIYTGRWEPFDYWGQGTLVTVSS
# B8: DMS0111 (bispecific antibody)
# chain: EVQLLESGGGLVQPGGSLRLSCAASGFTFVKYSMGWVRQAPGKGLEWVSQISNTADRTYYAHSVKGRFTISRDNSKNTLYLQMNSLRAEDTAVYYCAIYTGRWVPFEYWGQGTLVTVSSASTDIQMTQSPSSLSASVGDRVTITCRASRPIGTTLSWYQQKPGKAPKLLILWNSRLQSGVPSRFSGSGSGTDFTLTISSLQPEDFATYYCAQAGTHPTTFGQGTKVEIKR
# notes: anti-TNFR1 dAb / AlbudAb in-line fusion
# B9: DMS0112 (bispecific antibody)
# chain: EVQLLESGGGLVQPGGSLRLSCAASGFTFVKYSMGWVRQAPGKGLEWVSQISNTADRTYYAHSVKGRFTISRDNSKNTLYLQMNSLRAEDTAVYYCAIYTGRWVPFEYWGQGTLVTVSSASTDIQMTQSPSSLSASVGDRVTITCRASRPIGTMLSWYQQKPGKAPKLLILFGSRLQSGVPSRFSGSGSGTDFTLTISSLQPEDFATYYCAQAGTHPTTFGQGTKVEIKR
# notes: as for B8
# B10: DMS0114 (bispecific antibody)
# chain: EVQLLESGGGLVQPGGSLRLSCAASGFTFVKYSMGWVRQAPGKGLEWVSQISNTADRTYYAHSVKGRFTISRDNSKNTLYLQMNSLRAEDTAVYYCAIYTGRWVPFEYWGQGTLVTVSSASTDIQMTQSPSSLSASVGDRVTITCRASQWIGSQLSWYQQKPGKAPKLLIMWRSSLQSGVPSRFSGSGSGTDFTLTISSLQPEDFATYYCAQGLMKPMTFGQGTKVEIKR
# B11: DMS0115 (bispecific antibody)
# chain: EVQLLESGGGLVQPGGSLRLSCAASGFTFVKYSMGWVRQAPGKGLEWVSQISNTADRTYYAHSVKGRFTISRDNSKNTLYLQMNSLRAEDTAVYYCAIYTGRWVPFEYWGQGTLVTVSSASTSGPSDIQMTQSPSSLSASVGDRVTITCRASRPIGTTLSWYQQKPGKAPKLLILWNSRLQSGVPSRFSGSGSGTDFTLTISSLQPEDFATYYCAQAGTHPTTFGQGTKVEIKR
# notes: as for B8
# B12: DMS0116 (bispecific antibody)
# chain: EVQLLESGGGLVQPGGSLRLSCAASGFTFVKYSMGWVRQAPGKGLEWVSQISNTADRTYYAHSVKGRFTISRDNSKNTLYLQMNSLRAEDTAVYYCAIYTGRWVPFEYWGQGTLVTVSSASTSGPSDIQMTQSPSSLSASVGDRVTITCRASRPIGTMLSWYQQKPGKAPKLLILFGSRLQSGVPSRFSGSGSGTDFTLTISSLQPEDFATYYCAQAGTHPTTFGQGTKVEIKR
# notes: as for B8
# B13: DMS0118 (bispecific antibody)
# chain: EVQLLESGGGLVQPGGSLRLSCAASGFTFVKYSMGWVRQAPGKGLEWVSQISNTADRTYYAHSVKGRFTISRDNSKNTLYLQMNSLRAEDTAVYYCAIYTGRWVPFEYWGQGTLVTVSSASTSGPSDIQMTQSPSSLSASVGDRVTITCRASQWIGSQLSWYQQKPGKAPKLLIMWRSSLQSGVPSRFSGSGSGTDFTLTISSLQPEDFATYYCAQGLMKPMTFGQGTKVEIKR
# notes: as for B8
# B14: DMS0117 (bispecific antibody)
# chain: EVQLLESGGGLVQPGGSLRLSCAASGFTFVKYSMGWVRQAPGKGLEWVSQISNTADRTYYAHSVKGRFTISRDNSKNTLYLQMNSLRAEDTAVYYCAIYTGRWVPFEYWGQGTLVTVSSASTSGPSDIQMTQSPSSLSASVGDRVTITCRASQWIGSQLSWYQQKPGKAPKLLIMWRSSLQSGVPSRFSGSGSGTDFTLTISSLQPEDFATYYCAQGLRHPKTFGQGTKVEIKR
# B15: DMS0121 (bispecific antibody)
# chain: EVQLLESGGGLVQPGGSLRLSCAASGFTFVKYSMGWVRQAPGKGLEWVSQISNTADRTYYAHSVKGRFTISRDNSKNTLYLQMNSLRAEDTAVYYCAIYTGRWVPFEYWGQGTLVTVSSASGGGGSGGGGSGGGGSDIQMTQSPSSLSASVGDRVTITCRASRPIGTTLSWYQQKPGKAPKLLILWNSRLQSGVPSRFSGSGSGTDFTLTISSLQPEDFATYYCAQAGTHPTTFGQGTKVEIKR
# notes: as for B8
# B16: DMS0124 (bispecific antibody)
# chain: EVQLLESGGGLVQPGGSLRLSCAASGFTFVKYSMGWVRQAPGKGLEWVSQISNTADRTYYAHSVKGRFTISRDNSKNTLYLQMNSLRAEDTAVYYCAIYTGRWVPFEYWGQGTLVTVSSASGGGGSGGGGSGGGGSDIQMTQSPSSLSASVGDRVTITCRASQWIGSQLSWYQQKPGKAPKLLIMWRSSLQSGVPSRFSGSGSGTDFTLTISSLQPEDFATYYCAQGLMKPMTFGQGTKVEIKR
# notes: as for B8
# B17: DMS0122 (bispecific antibody)
# chain: EVQLLESGGGLVQPGGSLRLSCAASGFTFVKYSMGWVRQAPGKGLEWVSQISNTADRTYYAHSVKGRFTISRDNSKNTLYLQMNSLRAEDTAVYYCAIYTGRWVPFEYWGQGTLVTVSSASGGGGSGGGGSGGGGSDIQMTQSPSSLSASVGDRVTITCRASRPIGTMLSWYQQKPGKAPKLLILFGSRLQSGVPSRFSGSGSGTDFTLTISSLQPEDFATYYCAQAGTHPTTFGQGTKVEIKR
# B18: DMS0123 (bispecific antibody)
# chain: EVQLLESGGGLVQPGGSLRLSCAASGFTFVKYSMGWVRQAPGKGLEWVSQISNTADRTYYAHSVKGRFTISRDNSKNTLYLQMNSLRAEDTAVYYCAIYTGRWVPFEYWGQGTLVTVSSASGGGGSGGGGSGGGGSDIQMTQSPSSLSASVGDRVTITCRASQWIGSQLSWYQQKPGKAPKLLIMWRSSLQSGVPSRFSGSGSGTDFTLTISSLQPEDFATYYCAQGLRHPKTFGQGTKVEIKR
# Experiments:
# [1] = target: T1, human TNFR1 (recombinant, R&D Systems cat no. 636-R1/CF, biotinylated) (human, UniProt P19438 30-211, limits assumed, biotinylated with EZ-Link NHS-LC-LC-biotin); assay: BIAcore, human TNFR1
# T1 construct: it is not tied to the BIAcore reagent; also called p55; hTNFR1
# T1 sequence (looked up): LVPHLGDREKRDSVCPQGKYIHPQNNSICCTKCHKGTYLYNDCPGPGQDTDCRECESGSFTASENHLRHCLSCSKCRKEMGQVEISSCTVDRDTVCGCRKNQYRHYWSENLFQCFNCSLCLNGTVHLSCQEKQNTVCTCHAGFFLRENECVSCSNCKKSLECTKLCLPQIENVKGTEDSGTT
# [2] = target: T2, human TNFR1 on MRC-5 cells (human, UniProt P19438 30-455); assay: cell-based or functional assay
# T2 sequence (looked up): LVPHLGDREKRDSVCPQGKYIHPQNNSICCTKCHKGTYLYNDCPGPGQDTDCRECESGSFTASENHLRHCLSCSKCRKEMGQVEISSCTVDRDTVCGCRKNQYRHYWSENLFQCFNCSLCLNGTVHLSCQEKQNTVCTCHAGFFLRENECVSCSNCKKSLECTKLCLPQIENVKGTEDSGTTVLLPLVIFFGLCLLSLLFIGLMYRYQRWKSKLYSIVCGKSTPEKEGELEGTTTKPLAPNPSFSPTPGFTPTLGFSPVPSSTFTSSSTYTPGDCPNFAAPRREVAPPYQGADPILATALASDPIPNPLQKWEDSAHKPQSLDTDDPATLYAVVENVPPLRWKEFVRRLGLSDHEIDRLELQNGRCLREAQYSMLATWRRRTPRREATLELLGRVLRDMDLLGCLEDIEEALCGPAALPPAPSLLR
# [3] = target: T2, human TNFR1 on MRC-5 cells; assay: cell-based or functional assay; remark: listed apart in the source
# [4] = target: T1, human TNFR1 (recombinant, R&D Systems …); assay: BIAcore T100, biotinylated human TNFR1 on chip
# Procedure: Furthermore, the affinity and potency of the purified fusion molecules were determined using a BIAcore T100 and the MRC5 cell assay, respectively. The BIAcore T100 is a highly sensitive BIAcore version ideally suited for determination of high affinity binders (Papalia et al., Anal Biochem. 359, p 112 (2006)). Biotinylated, human TNFR1 was coated on the chip and each of the twelve AlbudAb fusions were passed over this surface at four different concentrations (2, 10, 50 and 250 nM). […] This improvement is observed regardless of the AlbudAb used for pairing and largest for the pairings with DOM7h-14-18. A second experiment used to establish if the different pairings affected the functional activity of the anti-TNFR1 dAb was the MRC5 cell assay (Table 8). A more marked difference between the pairings is observed in the MRC5 assay, in which the best potencies are observed in pairings with DOM7h-11-3 and DOM7h-11-12 while pairings with DOM7h-14-10 (DMS0117) lead to significant decreases in potency.
Binder,Kd [1],MRC-5 ND50 (TNFα-mediated IL-8 release) [2],MRC5 (ND50 in nM) [3],Kd [4],koff [4],kon [4],fold higher affinity than the other pairings [4]
B1,20000 pM,300 nM,–,–,–,–,–
B2,210000 pM,2200 nM,–,–,–,–,–
B3,48000 pM,580 nM,–,–,–,–,–
B4,5700 pM,10 nM,–,–,–,–,–
B5,19000 pM,100 nM,–,–,–,–,–
B6,200000 pM,800 nM,–,–,–,–,–
B7,–,140 nM,–,–,–,–,–
B8,–,–,1.6 nM,170 pM,6.2e-05 s⁻¹,370000 M⁻¹ s⁻¹,–
B9,–,–,1.3 nM,140 pM,5.5e-05 s⁻¹,400000 M⁻¹ s⁻¹,–
B10,–,–,3.7 nM,–,–,–,–
B11,–,–,1.7 nM,160 pM,5.8e-05 s⁻¹,360000 M⁻¹ s⁻¹,–
B12,–,–,1.7 nM,140 pM,5.4e-05 s⁻¹,370000 M⁻¹ s⁻¹,–
B13,–,–,1.4 nM,76 pM,4.9e-05 s⁻¹,640000 M⁻¹ s⁻¹,3 fold
B14,–,–,25.9 nM,–,–,–,–
B15,–,–,1.8 nM,200 pM,6e-05 s⁻¹,300000 M⁻¹ s⁻¹,–
B16,–,–,1.9 nM,77 pM,3.5e-05 s⁻¹,450000 M⁻¹ s⁻¹,3 fold
B17,–,–,1.5 nM,–,–,–,–
B18,–,–,5 nM,–,–,–,–
